Data as given in US20250283117, “RNA-GUIDED NUCLEASES AND ACTIVE FRAGMENTS AND VARIANTS THEREOF AND METHODS OF USE” (Life Edit Therapeutics, Inc., published 2025).

Tested on: T1, APG08290.1 (Bacillus sp.)
T1 sequence: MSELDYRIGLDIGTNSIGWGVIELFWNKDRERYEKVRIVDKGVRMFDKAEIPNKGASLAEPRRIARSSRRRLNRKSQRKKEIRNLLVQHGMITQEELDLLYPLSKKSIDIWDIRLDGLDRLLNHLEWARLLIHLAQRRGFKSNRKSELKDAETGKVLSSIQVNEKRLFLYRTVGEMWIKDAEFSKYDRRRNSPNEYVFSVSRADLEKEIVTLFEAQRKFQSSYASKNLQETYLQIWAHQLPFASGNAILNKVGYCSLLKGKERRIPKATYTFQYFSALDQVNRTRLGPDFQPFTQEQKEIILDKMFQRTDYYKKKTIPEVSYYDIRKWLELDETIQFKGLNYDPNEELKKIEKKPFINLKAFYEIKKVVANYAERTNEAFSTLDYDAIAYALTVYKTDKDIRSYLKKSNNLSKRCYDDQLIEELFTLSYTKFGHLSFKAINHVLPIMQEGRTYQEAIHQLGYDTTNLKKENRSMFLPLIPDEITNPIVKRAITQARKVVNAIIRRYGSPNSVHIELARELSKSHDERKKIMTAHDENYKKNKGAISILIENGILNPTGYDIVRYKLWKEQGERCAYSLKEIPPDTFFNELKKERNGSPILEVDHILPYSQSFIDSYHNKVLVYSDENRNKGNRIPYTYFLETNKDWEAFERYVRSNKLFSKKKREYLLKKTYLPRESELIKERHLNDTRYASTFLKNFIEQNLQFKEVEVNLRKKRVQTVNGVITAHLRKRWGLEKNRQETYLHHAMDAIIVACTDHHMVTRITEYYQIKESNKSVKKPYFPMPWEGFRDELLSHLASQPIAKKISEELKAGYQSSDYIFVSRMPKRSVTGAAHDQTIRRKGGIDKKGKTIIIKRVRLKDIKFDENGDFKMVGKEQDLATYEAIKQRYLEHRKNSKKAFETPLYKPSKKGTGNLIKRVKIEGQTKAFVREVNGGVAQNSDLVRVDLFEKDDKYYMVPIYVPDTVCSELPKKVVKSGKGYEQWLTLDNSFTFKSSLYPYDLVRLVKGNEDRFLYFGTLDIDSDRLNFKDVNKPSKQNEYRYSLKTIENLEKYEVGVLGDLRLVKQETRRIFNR
Experiment: cleavage_in_vitro
Details: not given

Sequence	activity [% cleaved]
GAGCGGACAGCAGCUUCCUAUAUCUCGUACNNNNNNNNNNNNNNNNNNNNNNNNNGUCAUAGUUCCAUGAAAGCCAAAAGUGGCUUUGAUGUUUCUAUGAUAAGGGUUUCGGCCCGUGGCGUCGGGGAUCGCCUGCCCAUUCCGAUGGGCUUCUCCCCAUUUAUU / CAGCGGACAGCAGCTTCCTATATCTCGTAC / GTACGAGATATAGGAAGCTGCTGTCCGCTG [Sequence 1 sgRNA for APG08290.1 ; target mismatch 30]	100
GAGCGGACAGCAGCUUCCUAUAUCUCGUACNNNNNNNNNNNNNNNNNNNNNNNNNGUCAUAGUUCCAUGAAAGCCAAAAGUGGCUUUGAUGUUUCUAUGAUAAGGGUUUCGGCCCGUGGCGUCGGGGAUCGCCUGCCCAUUCCGAUGGGCUUCUCCCCAUUUAUU / GAGCGGACAGCACCTTCCTATATCTCGTAC / GTACGAGATATAGGAAGGTGCTGTCCGCTC [Sequence 1 sgRNA for APG08290.1 ; target mismatch 18]	100
GAGCGGACAGCAGCUUCCUAUAUCUCGUACNNNNNNNNNNNNNNNNNNNNNNNNNGUCAUAGUUCCAUGAAAGCCAAAAGUGGCUUUGAUGUUUCUAUGAUAAGGGUUUCGGCCCGUGGCGUCGGGGAUCGCCUGCCCAUUCCGAUGGGCUUCUCCCCAUUUAUU / GAGCGGACAGCAGCTTCCTAAATCTCGTAC / GTACGAGATTTAGGAAGCTGCTGTCCGCTC [Sequence 1 sgRNA for APG08290.1 ; target mismatch 10]	75
GAGCGGACAGCAGCUUCCUAUAUCUCGUACNNNNNNNNNNNNNNNNNNNNNNNNNGUCAUAGUUCCAUGAAAGCCAAAAGUGGCUUUGAUGUUUCUAUGAUAAGGGUUUCGGCCCGUGGCGUCGGGGAUCGCCUGCCCAUUCCGAUGGGCUUCUCCCCAUUUAUU / GAGCGGACAGCAGCTTCCTATAACTCGTAC / GTACGAGTTATAGGAAGCTGCTGTCCGCTC [Sequence 1 sgRNA for APG08290.1 ; target mismatch 8]	0
GAGCGGACAGCAGCUUCCUAUAUCUCGUACNNNNNNNNNNNNNNNNNNNNNNNNNGUCAUAGUUCCAUGAAAGCCAAAAGUGGCUUUGAUGUUUCUAUGAUAAGGGUUUCGGCCCGUGGCGUCGGGGAUCGCCUGCCCAUUCCGAUGGGCUUCUCCCCAUUUAUU / GAGCGGACAGCAGCTTCCTATATCTCGAAC / GTTCGAGATATAGGAAGCTGCTGTCCGCTC [Sequence 1 sgRNA for APG08290.1 ; target mismatch 3]	73
GAGCGGACAGCAGCUUCCUAUAUCUCGUACNNNNNNNNNNNNNNNNNNNNNNNNNGUCAUAGUUCCAUGAAAGCCAAAAGUGGCUUUGAUGUUUCUAUGAUAAGGGUUUCGGCCCGUGGCGUCGGGGAUCGCCUGCCCAUUCCGAUGGGCUUCUCCCCAUUUAUU / GAGCGGACAGCAGCTTCCTATATCTCGTAG / CTACGAGATATAGGAAGCTGCTGTCCGCTC [Sequence 1 sgRNA for APG08290.1 ; target mismatch 1]	0
GAGCGGACAGCAGCUUCCUAUAUCUCGUACNNNNNNNNNNNNNNNNNNNNNNNNNGUCAUAGUUCCAUGAAAGCCAAAAGUGGCUUUGAUGUUUCUAUGAUAAGGGUUUCGGCCCGUGGCGUCGGGGAUCGCCUGCCCAUUCCGAUGGGCUUCUCCCCAUUUAUU / GAGCGGACAGCAGCTTCCTATATCTCGTTC / GAACGAGATATAGGAAGCTGCTGTCCGCTC [Sequence 1 sgRNA for APG08290.1 ; target mismatch 2]	0
GAGCGGACAGCAGCUUCCUAUAUCUCGUACNNNNNNNNNNNNNNNNNNNNNNNNNGUCAUAGUUCCAUGAAAGCCAAAAGUGGCUUUGAUGUUUCUAUGAUAAGGGUUUCGGCCCGUGGCGUCGGGGAUCGCCUGCCCAUUCCGAUGGGCUUCUCCCCAUUUAUU / GAGCGGACAGCAGCTTCCTATATCTGGTAC / GTACCAGATATAGGAAGCTGCTGTCCGCTC [Sequence 1 sgRNA for APG08290.1 ; target mismatch 5]	0
GAGCGGACAGCAGCUUCCUAUAUCUCGUACNNNNNNNNNNNNNNNNNNNNNNNNNGUCAUAGUUCCAUGAAAGCCAAAAGUGGCUUUGAUGUUUCUAUGAUAAGGGUUUCGGCCCGUGGCGUCGGGGAUCGCCUGCCCAUUCCGAUGGGCUUCUCCCCAUUUAUU / GAGCGGACAGCAGCTTCGTATATCTCGTAC / GTACGAGATATACGAAGCTGCTGTCCGCTC [Sequence 1 sgRNA for APG08290.1 ; target mismatch 13]	28
GAGCGGACAGCAGCUUCCUAUAUCUCGUACNNNNNNNNNNNNNNNNNNNNNNNNNGUCAUAGUUCCAUGAAAGCCAAAAGUGGCUUUGAUGUUUCUAUGAUAAGGGUUUCGGCCCGUGGCGUCGGGGAUCGCCUGCCCAUUCCGAUGGGCUUCUCCCCAUUUAUU / GAGCGGACTGCAGCTTCCTATATCTCGTAC / GTACGAGATATAGGAAGCTGCAGTCCGCTC [Sequence 1 sgRNA for APG08290.1 ; target mismatch 22]	100

Same assay, conditions: PAM NNRNCC; NTS cut 4, TS cut 3, 1 nt 5' overhang (Table 3)

Sequence	activity [% cleaved]
GAGCGGACAGCAGCUUCCUAUAUCUCGUACNNNNNNNNNNNNNNNNNNNNNNNNNGUCAUAGUUCCAUGAAAGCCAAAAGUGGCUUUGAUGUUUCUAUGAUAAGGGUUUCGGCCCGUGGCGUCGGGGAUCGCCUGCCCAUUCCGAUGGGCUUCUCCCCAUUUAUU / GAGCGGACAGCAGCTTCCTATATCTCGTAC / GTACGAGATATAGGAAGCTGCTGTCCGCTC [Sequence 1 sgRNA for APG08290.1 ; Sequence 1 target]	95

Same assay, conditions: incompatible PAM

Sequence	activity [% cleaved]
GAGCGGACAGCAGCUUCCUAUAUCUCGUACNNNNNNNNNNNNNNNNNNNNNNNNNGUCAUAGUUCCAUGAAAGCCAAAAGUGGCUUUGAUGUUUCUAUGAUAAGGGUUUCGGCCCGUGGCGUCGGGGAUCGCCUGCCCAUUCCGAUGGGCUUCUCCCCAUUUAUU / GAGCGGACAGCAGCTTCCTATATCTCGTAC / GTACGAGATATAGGAAGCTGCTGTCCGCTC	0

Tested on: T2, APG05459.1 (Enterococcus sp.)
T2 sequence: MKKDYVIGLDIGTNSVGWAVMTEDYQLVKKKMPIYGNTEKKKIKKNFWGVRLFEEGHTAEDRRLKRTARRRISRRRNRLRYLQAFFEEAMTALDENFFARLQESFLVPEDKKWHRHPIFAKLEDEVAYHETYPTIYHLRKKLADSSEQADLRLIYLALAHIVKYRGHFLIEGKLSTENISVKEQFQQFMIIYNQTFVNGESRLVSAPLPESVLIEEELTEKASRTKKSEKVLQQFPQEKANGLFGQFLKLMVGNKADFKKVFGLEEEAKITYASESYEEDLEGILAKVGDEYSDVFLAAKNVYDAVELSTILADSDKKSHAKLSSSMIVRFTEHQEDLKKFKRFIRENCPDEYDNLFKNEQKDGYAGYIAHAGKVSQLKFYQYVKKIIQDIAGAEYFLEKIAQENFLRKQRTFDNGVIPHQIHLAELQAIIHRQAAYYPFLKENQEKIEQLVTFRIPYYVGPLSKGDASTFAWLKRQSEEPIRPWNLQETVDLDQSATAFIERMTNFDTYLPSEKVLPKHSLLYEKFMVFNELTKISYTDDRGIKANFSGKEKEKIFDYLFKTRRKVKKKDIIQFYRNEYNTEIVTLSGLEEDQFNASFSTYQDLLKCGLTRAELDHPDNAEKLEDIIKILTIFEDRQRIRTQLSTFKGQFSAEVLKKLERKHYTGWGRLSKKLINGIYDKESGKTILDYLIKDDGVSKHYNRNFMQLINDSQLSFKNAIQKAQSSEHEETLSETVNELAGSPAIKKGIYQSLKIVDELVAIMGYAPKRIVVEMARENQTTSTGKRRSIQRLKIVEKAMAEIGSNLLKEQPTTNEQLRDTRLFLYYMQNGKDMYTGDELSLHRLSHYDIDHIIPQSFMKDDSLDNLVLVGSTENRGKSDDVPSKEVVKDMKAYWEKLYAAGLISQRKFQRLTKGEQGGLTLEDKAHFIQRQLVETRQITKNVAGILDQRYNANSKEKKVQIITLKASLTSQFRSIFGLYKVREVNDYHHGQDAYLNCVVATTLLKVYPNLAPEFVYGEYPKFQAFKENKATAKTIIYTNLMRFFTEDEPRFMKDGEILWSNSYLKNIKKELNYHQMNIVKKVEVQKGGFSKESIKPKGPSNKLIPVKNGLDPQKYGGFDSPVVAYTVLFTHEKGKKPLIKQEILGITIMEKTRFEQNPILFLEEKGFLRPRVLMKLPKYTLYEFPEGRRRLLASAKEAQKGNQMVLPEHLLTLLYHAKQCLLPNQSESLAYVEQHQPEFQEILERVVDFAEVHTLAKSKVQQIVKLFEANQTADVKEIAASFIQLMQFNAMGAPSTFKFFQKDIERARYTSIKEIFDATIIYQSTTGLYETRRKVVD
Experiment: cleavage_in_vitro
Details: not given

Sequence	activity [% cleaved]
GAGCGGACAGCAGCUUCCUAUAUCUCGUACNNNNNNNNNNNNNNNNNNNNNNNNNGUUUUAGAGUCAUGUUAAAGAACAUAGCAAGUUAAAAUAAGGUUUUAACCGUAAUCAACUGUAAAGUGGCGCUGUUUCGGCGCUUUUUUUGUUU / CAGCGGACAGCAGCTTCCTATATCTCGTAC / GTACGAGATATAGGAAGCTGCTGTCCGCTG [Sequence 1 sgRNA for APG05459.1 ; target mismatch 30]	57
GAGCGGACAGCAGCUUCCUAUAUCUCGUACNNNNNNNNNNNNNNNNNNNNNNNNNGUUUUAGAGUCAUGUUAAAGAACAUAGCAAGUUAAAAUAAGGUUUUAACCGUAAUCAACUGUAAAGUGGCGCUGUUUCGGCGCUUUUUUUGUUU / GAGCGGACAGCACCTTCCTATATCTCGTAC / GTACGAGATATAGGAAGGTGCTGTCCGCTC [Sequence 1 sgRNA for APG05459.1 ; target mismatch 18]	0
